Source: patent US20170015742A1 (published 2017)
Residue numbers refer to the chain shown, from its start. Blank lines part the entries; values can stand above or below the binder they belong to.

Legend:
[1] = target: T1, recombinant human PDGF-Rβ-Fc (R&D Systems #385-PR) (human, UniProt P09619 33-530); experiment: competition ELISA: antibody on coated hPDGFRβ-Fc against hPDGF-BB-biotin (Example 1.27)
T1 construct: Bought reagent; also called hPDGFRβ-Fc; huPDGF Rβ; not shown: Fc part of the bought fusion protein
T1 sequence (P09619 33-530 limits assumed): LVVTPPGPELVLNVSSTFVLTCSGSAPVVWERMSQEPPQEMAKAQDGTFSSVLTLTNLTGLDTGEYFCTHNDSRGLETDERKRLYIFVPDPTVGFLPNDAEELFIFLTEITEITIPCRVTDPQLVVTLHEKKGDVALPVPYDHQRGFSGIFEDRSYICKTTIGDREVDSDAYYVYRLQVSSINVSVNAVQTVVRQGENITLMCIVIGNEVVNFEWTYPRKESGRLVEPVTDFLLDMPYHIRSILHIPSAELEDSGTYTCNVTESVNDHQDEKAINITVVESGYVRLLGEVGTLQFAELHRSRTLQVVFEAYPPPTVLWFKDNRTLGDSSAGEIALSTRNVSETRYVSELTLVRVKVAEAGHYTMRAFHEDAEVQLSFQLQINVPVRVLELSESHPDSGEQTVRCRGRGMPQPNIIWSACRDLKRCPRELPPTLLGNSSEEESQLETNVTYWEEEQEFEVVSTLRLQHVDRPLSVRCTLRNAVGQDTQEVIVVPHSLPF
Description: Plates were then washed four times with wash buffer (TBS, 0.05% Tween-20) and blocked with Superblock blocking buffer (Thermo Scientific, cat#37535). During the blocking step, supernatants, antibodies and benchmark compounds were diluted in assay diluent (10% Superblock containing 0.05% surfactamps) and an eight point titration of each sample molecule was performed. The samples were added to wells and incubated for 30 minutes at 25° C. with shaking. […] This was added to wells (10 ng/mL/3.97E-10 M final concentration) and incubation was continued for 35 minutes at 25° C. with shaking. Following incubation, plates were washed four times with wash buffer. Detection reagent Streptavidin-polyHRP-40 (Fitzgerald, cat#65r-s104phrp) was diluted in assay diluent and added to plates (50 μL) for 45 minutes at 25° C. with shaking. Plates were washed four times with wash buffer and developed with the addition of Enhanced K-blue TMB substrate (Neogen, cat#308177). The reaction was stopped with 2N sulfuric acid (VWR, cat# BDH3500-1) and the absorbance was read at 450 nm-570 nm. […] Data was analyzed using Softmax Pro 4.8 software and IC₅₀ values calculated using a sigmoidal dose response (variable slope) fit in GraphPad Prism 5.

[2] = target: T2, Human PDGF-BB (human, UniProt P01127 82-190); experiment: Biacore SPR (Example 1.1)
T2 construct: Recombinant human PDGF-BB, a dimer of two B chains; also called huPDGF-BB; hPDGF-BB
T2 sequence (P01127 82-190 limits assumed): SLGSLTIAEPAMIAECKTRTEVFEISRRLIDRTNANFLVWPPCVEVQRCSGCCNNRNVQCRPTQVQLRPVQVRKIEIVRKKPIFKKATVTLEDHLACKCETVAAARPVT
Description: (§1) Unreacted moieties on the biosensor surface were blocked with ethanolamine. For kinetic analysis, rate equations derived from the 1:1 Langmuir binding model were fitted simultaneously to multiple antigen injections (using global fit analysis) with the use of Scrubber 2 (BioLogic Software), Biacore Biaevaluation 4.0.1 software or Biacore T100 Evaluation software. Purified antibodies or DVD-Ig molecules were diluted in running buffer for capture across goat anti-human Fc reaction surfaces. Antibodies or DVD-Ig molecules to be captured as a ligand (1 μg/ml) were injected over reaction matrices at a flow rate of 10 μl/minute. During the assay, all measurements were referenced against the capture surface alone (i.e., with no captured antibody or DVD-Ig molecule). […] The equilibrium dissociation constant KD (M) of the reaction between antibodies and the target antigen was then calculated from the kinetic rate constants by the following formula: KD=Koff/Kₒₙ. Binding was recorded as a function of time and kinetic rate constants were calculated. In this assay, on-rates as fast as 10⁶M⁻¹s⁻¹ and off-rates as slow as 10⁻⁶ s⁻¹ could be measured.

[3] = target: T2, Human PDGF-BB; experiment: Biacore SPR (Example 1.1); footnote **: heterogeneous off-rate
Description: as §1

[4] = target: T2, Human PDGF-BB; experiment: Biacore SPR (Example 1.1); second of two rows for this clone
Description: as §1

[5] = target: T2, Human PDGF-BB; experiment: Biacore SPR (Example 1.1); first of two rows for this clone
Description: as §1

[6] = target: T2, Human PDGF-BB; experiment: cell-based or functional assay
[7] = target: T2, Human PDGF-BB; experiment: competition ELISA: huPDGF-BB-biotin binding to coated huPDGF-Rβ-Fc (Example 1.13)
Description: Plates were then washed four times with wash buffer (TBS, 0.05% Tween-20) and blocked with Superblock blocking buffer (Thermo Scientific, cat#37535). During the blocking step, supernatants, antibodies, benchmark compounds or DVD-Ig were diluted in assay diluent (10% Superblock containing 0.05% surfactamps) and an eight point titration of each sample molecule was performed. […] Following incubation, plates were washed four times with wash buffer. Detection reagent Streptavidin-polyHRP-40 (Fitzgerald, cat#65r-s104phrp) was diluted in assay diluent and added to plates (50 μL) for 45 minutes at 25° C. with shaking. Plates were washed four times with wash buffer and developed with the addition of Enhanced K-blue TMB substrate (Neogen, cat#308177). The reaction was stopped with 2N sulfuric acid (VWR, cat# BDH3500-1) and the absorbance was read at 450 nm-570 nm. […] Data was analyzed using Softmax Pro 4.8 software and IC₅₀ values calculated using a sigmoidal dose response (variable slope) fit in GraphPad Prism 5.

[8] = target: T3, recombinant human VEGF-R2-Fc (R&D Systems cat#357-KD) (human, UniProt P35968 20-764); experiment: direct binding ELISA on coated recombinant human VEGF-R2-Fc (Example 1.22)
T3 construct: Bought reagent; also called hVEGFR2-Fc; hVEGF-R2 (KDR/Flk-1); not shown: Fc part of the bought fusion protein
T3 sequence (P35968 20-764 limits assumed): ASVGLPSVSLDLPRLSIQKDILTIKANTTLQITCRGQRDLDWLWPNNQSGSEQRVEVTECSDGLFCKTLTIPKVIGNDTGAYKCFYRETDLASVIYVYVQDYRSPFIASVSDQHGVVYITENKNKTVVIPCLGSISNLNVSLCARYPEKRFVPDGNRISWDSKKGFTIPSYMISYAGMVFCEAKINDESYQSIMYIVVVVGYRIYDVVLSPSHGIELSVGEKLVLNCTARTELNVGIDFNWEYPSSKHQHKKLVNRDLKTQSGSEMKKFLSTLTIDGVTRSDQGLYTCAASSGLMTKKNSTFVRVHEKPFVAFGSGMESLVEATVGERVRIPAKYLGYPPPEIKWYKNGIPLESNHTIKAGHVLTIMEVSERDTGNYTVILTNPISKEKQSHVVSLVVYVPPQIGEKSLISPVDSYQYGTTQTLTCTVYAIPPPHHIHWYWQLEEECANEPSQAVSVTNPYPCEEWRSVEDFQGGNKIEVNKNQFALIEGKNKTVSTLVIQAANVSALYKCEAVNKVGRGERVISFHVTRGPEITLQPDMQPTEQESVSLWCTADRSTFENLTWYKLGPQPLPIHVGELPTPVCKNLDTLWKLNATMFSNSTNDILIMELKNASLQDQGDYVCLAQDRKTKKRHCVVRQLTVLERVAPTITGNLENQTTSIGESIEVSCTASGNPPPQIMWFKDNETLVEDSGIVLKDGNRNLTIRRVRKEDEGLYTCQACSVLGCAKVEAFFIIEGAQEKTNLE
Description: Plates were then washed four times with wash buffer (TBS, 0.05% Tween-20) and blocked with Superblock blocking buffer (Thermo Scientific, cat#37535). […] Following incubation, plates were washed four times with wash buffer. […] Plates were washed four times with wash buffer and developed with the addition of Enhanced K-blue TMB substrate (Neogen cat#308177). The reaction was stopped with 2N sulfuric acid (VWR, cat# BDH3500-1) and the absorbance was read at 450 nm-570 nm. […] Data was analyzed using Softmax Pro 4.8 software and IC₅₀ values calculated using a sigmoidal dose response (variable slope) fit in GraphPad Prism 5.

Kd [4]: ≤ 0.1 pM
kon [4]: ≥ 1e+07 M⁻¹ s⁻¹
Kd [5]: ≤ 0.058 pM
kon [5]: ≥ 1.7e+07 M⁻¹ s⁻¹
B3: BDI-9E8-E7 (antibody, V domains shown)
VH: QVTLKESGPGILQPSQTLSLTCTFSGFSLSTYGMGVGWIRQPSGKGLEWLANIWWDDDKYYNPSLKNRLTISKDTSNNQAFLKITNVDTADTATYYCARIESIGTTYSFDYWGQGVMVTVSS
VL: QFTLTQPKSVSGSLRSTITIPCERSSGDIGDSYVSWYQQHLGRPPINVIYADDQRPSEVSDRFSGSIDSSSNSASLTITNLQMDDEADYFCQSYDINIDIVFGGGTKLTVL

Phospho-Tyr751/hPDGF-BB Neutralization [6]: 0.736 nM
huPDGF-BB Neutralization Potency (nM) in NIH-3T3 Cells [6]: 0.344 nM
IC50 [7]: 7100 pM
Kd [2]: ≤ 0.047 pM
kon [2]: 2.1e+07 M⁻¹ s⁻¹
B5: BFU-11A8-D6-C3 (antibody, V domains shown)
VH: EVQLQQSGPELQRPGASVKLSCKASGYTFTESYIYWVKQRPEQSLELIGRIDPEDGSTDYVEKFKNKATLTADTSSNTAYMQLSSLTSEDTATYFCARFGARSYFYPMDAWGQGTSVTVSS
VL: DTVLTQSPTLAVSPGERVSIPCRASESVSTLMHWYQQKPGQQPRLLIYGASNLESGVPARFSGSGSGTDFTLTIDPVEADDTATYFCQQSWNDPWTFGGGTKLELK

binding result [8]: binds
B7: BCU-7A6-C2 (antibody, V domains shown)
VH: EVQLVESGGGLVQPRGSLKLSCAASGFDFNSYGMSWVRQAPGKGLDLVADISSKSYNYATYYADSVKDRFTISRDDSQSMVYLQMDNLKTEDTALYYCTESLELGGAYWGQGTLVTVSS
VL: DIQMTQSPPSLSASLGDEVTITCQASQNINKFIAWYQQKPGKAPRLLIRYTSTLKSGTPSRFSGSGSGRDYSFSISNVESEDIASYYCLQYDSLPWTFGGGTKLELK
notes: Rat hybridoma anti-human VEGFR II monoclonal antibody, isotype IgG2b/κ

binding result [8]: binds
B9: BCU-3D6-C9 (antibody, V domains shown)
VH: QIQLVQSGPELKKPGESVKISCKASEYTFTDYAIHWVKQAPGKGLKWMGWINTYTGKPTYADDFKGRFVFSLEASASTANLQISNLKNEDTATYFCARDYGGYGERRDYFDYWGQGVMVTVSS
VL: DIQMTQSPASLSASLGETVTIECRVSEDIYNGLAWYQQKPGKSPQFLIYNANRLHTGVPSRFSGSGSGTQFSLKINSLQSEDVANYFCQQYYDYPLTFGSATKLEIK
notes: Rat hybridoma anti-human VEGFR II monoclonal antibody

The remaining lines, values behind:

B1: BDE-4F2-D4 (antibody, V domains shown)
VH: QVQLKESGPGLMQPSQTLSLTCTVSGFSLTNYGVSWVRQFPGKGLEWIAAISSGGSTYYNSALKSRLSISRDTSRSQVFLKMNSLLTEDTAFYFCTRVYYGSNYFDYWGPGVMVTVSS
VL: DIVMTQTPSSQAVSAGEKVTMSCKSSQSLLYGGDQKNFLAWYQQKPGQSPKLLIYLASTRESGVPDRFIGSGSGTDFTLTISSVQAEDLADYYCQQHYGYPFTFGSGTKLEIK
notes: Rat hybridoma anti-human PDGFR-B monoclonal antibody, isotype IgG2a/κ
IC50 [1]: 527 pM

B2: BDI-1E1-D5 (antibody, V domains shown)
VH: EVKLQQSGDELVRPGASVKMSCKASGYTFTDYVMHWVKQSPGQGLEWIGTIIPLIDTTSYNQKFKGKATLTADKSSNTAYMELSRLTSEDSAVYYCARTSPYYYSSYDVMDAWGQGASVTVSS
VL: NIQLTQSPSLLSASVGDRVTLSCKGSQNINNYLAWYQQKLGEAPKLLIYKTNNLQTGIPSRFSGCGSGTDYTLTISSLHSEDLATYYCYQYDNGYTFGAGTKLELK
kon [2]: ≥ 1e+07 M⁻¹ s⁻¹
Kd [3]: ≤ 37 pM

B4: BFU-3E2-B9-B8 (antibody, V domains shown)
VH: B5 VH with I34M, T91S
VL: B5 VL with S7P, T9A, P21S
Phospho-Tyr751/hPDGF-BB Neutralization [6]: 0.642 nM
huPDGF-BB Neutralization Potency (nM) in NIH-3T3 Cells [6]: 0.247 nM
IC50 [7]: > 50000 pM
Kd [2]: ≤ 0.15 pM
kon [2]: ≥ 1e+07 M⁻¹ s⁻¹

B6: BDI-6A3-A9 (antibody, V domains shown)
VH: EVQLVESGGGLVQPGRSLKFSCAASGFSFSDSAMAWVRQAPKKGLEWVATIIYDGSGTYYRDSVKGRFTISRDNAKSTLYLQMDSLRSEDTATYYCARLGFNYGNYGYYVMDAWGQGASVTVSS
VL: QFTLTQPKSVSGSLRNTITIPCERSSGDIGDSYVSWYQQHLGRPPINVIFADDQRPSEVSDRFSGSIDSSSNSASLTITNLQMDDEADYFCQSYDSNIDINIVFGGGTKLTVL
kon [2]: ≥ 1e+07 M⁻¹ s⁻¹
Kd [3]: ≤ 670 pM

B8: BDE-3C9-G4 (antibody, V domains shown)
VH: EVQLVESGGGLVQPGRSLKLSCAASGFTFSNYGMAWVRQAPTQGLEWVASITNSGGNTYYRDSVKGRFTISRDSAKNTQYLQMDSLRSEDTATYFCARHTPGANYFDYWGQGLMVTVSS
VL: DIQMTQSPPSLSASLGEKVTITCQASQSIKNYIAWYQLKPGTAPRLLMRYTSTLESGTPSRFSGSGSGRDYSFSISNVESEDIASYYCVQYANLYTFGGGTKLELK
notes: Rat hybridoma anti-human PDGFR-B monoclonal antibody, isotype IgG2b/κ
IC50 [1]: 832 pM
